How the values were obtained:
[1] = target: MSI-1 RRM2-M1 (Homo sapiens, UniProt O43347 104-200, E180N); assay: SPR; NMR: 50 mM Tris-HCl, 140 mM NaCl, 1 mM EDTA, 1 mM protease inhibitors, pH 7.2 (RRM1: pH 7.5), 298 K; fluorescence quenching: 50 mM Tris pH 7.2, 140 mM NaCl, 1 mM EDTA; SPR: biotinylated RNA immobilised, buffer not in the material; conditions: protein: recombinant, label: biotin for SPR
[2] = target: MSI-1 RRM2-M2 (Homo sapiens, UniProt O43347 104-200, K182M); assay: as above; conditions: protein: recombinant, label: biotin for SPR
MSI-1 RRM2-M2, sequence (O43347 104-200 K182M): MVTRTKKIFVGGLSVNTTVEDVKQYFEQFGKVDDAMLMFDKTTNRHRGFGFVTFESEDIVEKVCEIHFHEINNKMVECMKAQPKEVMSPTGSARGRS

[3] = target: MSI-1 RRM1 (Homo sapiens, UniProt O43347 1-103); assay: SPR; 1:1 model; NMR: 50 mM Tris-HCl, 140 mM NaCl, 1 mM EDTA, 1 mM protease inhibitors, pH 7.2 (RRM1: pH 7.5), 298 K; fluorescence quenching: 50 mM Tris pH 7.2, 140 mM NaCl, 1 mM EDTA; SPR: biotinylated RNA immobilised, buffer not in the material; conditions: protein: recombinant, label: biotin for SPR
MSI-1 RRM1, sequence (O43347 1-103): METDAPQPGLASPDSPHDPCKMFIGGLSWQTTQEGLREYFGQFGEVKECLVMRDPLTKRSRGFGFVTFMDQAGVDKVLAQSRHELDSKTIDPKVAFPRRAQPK

[4] = target: MSI-1 RRM2 (Homo sapiens, UniProt O43347 104-200); assay: as above; conditions: protein: recombinant, label: biotin for SPR
MSI-1 RRM2, sequence (O43347 104-200): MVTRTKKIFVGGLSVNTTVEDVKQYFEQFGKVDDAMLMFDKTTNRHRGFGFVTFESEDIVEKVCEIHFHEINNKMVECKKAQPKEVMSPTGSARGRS

[5] = target: T1, MSI-1 RRM1-2 (Homo sapiens, UniProt O43347 1-200); assay: SPR; KD1 monovalent, 1:2 model; NMR: 50 mM Tris-HCl, 140 mM NaCl, 1 mM EDTA, 1 mM protease inhibitors, pH 7.2 (RRM1: pH 7.5), 298 K; fluorescence quenching: 50 mM Tris pH 7.2, 140 mM NaCl, 1 mM EDTA; SPR: biotinylated RNA immobilised, buffer not in the material; conditions: protein: recombinant, label: biotin for SPR, unlabelled for NMR
T1 sequence (O43347 1-200): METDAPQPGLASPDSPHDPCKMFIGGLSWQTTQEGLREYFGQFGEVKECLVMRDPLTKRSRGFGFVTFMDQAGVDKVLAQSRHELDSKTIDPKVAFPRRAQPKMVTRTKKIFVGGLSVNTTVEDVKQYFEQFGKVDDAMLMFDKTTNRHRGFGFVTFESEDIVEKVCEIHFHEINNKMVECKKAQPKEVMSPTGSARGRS

[6] = target: T2, MSI-1 RRM1-2 DM (Homo sapiens, UniProt O43347 1-200, E180N;K182M); assay: as above; conditions: protein: recombinant; label: biotin for SPR; unlabelled for NMR; single strand
T2 sequence (O43347 1-200 E180N/K182M): as the sequence (O43347 1-200) above, with E180N, K182M counted along it

[7] = target: T1, MSI-1 RRM1-2; assay: SPR; KD1 monovalent; bivalent part negligible; NMR: 50 mM Tris-HCl, 140 mM NaCl, 1 mM EDTA, 1 mM protease inhibitors, pH 7.2 (RRM1: pH 7.5), 298 K; fluorescence quenching: 50 mM Tris pH 7.2, 140 mM NaCl, 1 mM EDTA; SPR: biotinylated RNA immobilised, buffer not in the material; conditions: protein: recombinant; label: biotin for SPR; single strand
[8] = target: T2, MSI-1 RRM1-2 DM; assay: SPR; KD1 monovalent; 1:1 model at low RNA density; NMR: 50 mM Tris-HCl, 140 mM NaCl, 1 mM EDTA, 1 mM protease inhibitors, pH 7.2 (RRM1: pH 7.5), 298 K; fluorescence quenching: 50 mM Tris pH 7.2, 140 mM NaCl, 1 mM EDTA; SPR: biotinylated RNA immobilised, buffer not in the material; conditions: protein: recombinant; label: biotin for SPR; single strand
[9] = target: T2, MSI-1 RRM1-2 DM; assay: NMR; more than one species; NMR: 50 mM Tris-HCl, 140 mM NaCl, 1 mM EDTA, 1 mM protease inhibitors, pH 7.2 (RRM1: pH 7.5), 298 K; fluorescence quenching: 50 mM Tris pH 7.2, 140 mM NaCl, 1 mM EDTA; SPR: biotinylated RNA immobilised, buffer not in the material; conditions: protein: recombinant; label: biotin for SPR; unlabelled for NMR; hairpin
[10] = target: T2, MSI-1 RRM1-2 DM; assay: SPR; KD1 monovalent; NMR: 50 mM Tris-HCl, 140 mM NaCl, 1 mM EDTA, 1 mM protease inhibitors, pH 7.2 (RRM1: pH 7.5), 298 K; fluorescence quenching: 50 mM Tris pH 7.2, 140 mM NaCl, 1 mM EDTA; SPR: biotinylated RNA immobilised, buffer not in the material; conditions: protein: recombinant; label: biotin for SPR; unlabelled for NMR; single strand
[11] = unlabelled for NMR, single strand

MSI-1 RRM2-M1, sequence (O43347 104-200 E180N): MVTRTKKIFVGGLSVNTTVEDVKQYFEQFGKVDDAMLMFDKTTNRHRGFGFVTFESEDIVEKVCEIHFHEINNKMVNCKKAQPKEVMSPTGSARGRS

| Binder | Kd [1, 11] [nM] | Kd [2, 11] [nM] | Kd [3, 11] [nM] | Kd [4, 11] [nM] | Kd ([5]; single strand) [nM] | Kd ([1]; unlabelled for NMR, hairpin) [nM] | Kd ([2]; unlabelled for NMR, hairpin) [nM] | Kd ([3]; unlabelled for NMR, hairpin) [nM] | Kd ([4]; unlabelled for NMR, hairpin) [nM] | Kd ([5]; hairpin) [nM] | Kd [10] [nM] | other results |
| --- | --- | --- | --- | --- | --- | --- | --- | --- | --- | --- | --- | --- |
| UUGUUAGUUACCCCUU (ssRNA) [oligo-L2] | 35.5 ± 3.6 | 108 ± 10.2 | 47.1 ± 0.7 | 25 ± 3.6 | 57.6 ± 12.9 | – | – | – | – | – | – | Kd [6]: 104 ± 9.5 nM |
| CACUCUGUAGUAUGUAGGGUUUAUUU (structured_RNA) [oligo-HP5] | – | – | – | – | – | 14.5 ± 0.8 | 14.5 ± 3 | 32.8 ± 5.2 | 26.4 ± 1.6 | 48.6 ± 5.6 | – | – |
| UUGUCAGUUACCCCUU (ssRNA) [oligo-L2.1] | – | – | – | – | – | – | – | – | – | – | – | Kd [7]: 218 ± 27.5 nM; Kd [8]: 67 ± 20.4 nM; Kd ([1]; single strand): 58.6 ± 3.6 nM; Kd ([2]; single strand): 62.9 ± 11 nM; Kd ([3]; single strand): 151 ± 16.9 nM; Kd ([4]; single strand): 123 ± 7.8 nM |
| AAGCGUUAGUUAUUUAGUCGCUU (structured_RNA) [oligo-HP4] | – | – | – | – | – | 14.1 ± 2.5 | 39.1 ± 15 | 21.9 ± 2.7 | 37.2 ± 2.4 | 76.8 ± 5.9 | – | binding result [9]: binds |
| UUGAUAGUUAGCAGGU (ssRNA) [oligo-L3.2] | 49.8 ± 11.4 | 88.5 ± 1.25 | 85.6 ± 7.4 | 44.5 ± 4.5 | 144 ± 15 | – | – | – | – | – | 98.5 ± 6.9 | – |
| UUGUUAGUUAUUAGUU (ssRNA) [oligo-L3] | 74.8 ± 9.3 | 64.5 ± 4.1 | 153 ± 8.6 | 81.6 ± 2 | 248 ± 8.5 | – | – | – | – | – | 98.5 ± 4.8 | – |

— PMC12342889, “Deciphering the RNA recognition by Musashi-1 to design protein and RNA variants for in vitro and in vivo applications”
